Reference: article PMC10267678, “Proteomic Profiling of Extracellular Matrix Components from Patient Metastases Identifies Consistently Elevated Proteins for Developing Nanobodies That Target Primary Tumors and Metastases” (Cancer Research, 2023)

Columns and labels:
[1] = molecular target: T1, mouse TNC on tissue sections of lung metastases derived from murine TNBC cell line 4T1 (Mus musculus (4T1 metastases in BALB/c), UniProt Q80YX1); test: immunostaining of cells or tissue; IHC with the nanobodies on tissue sections of lung metastases (LM2 in NSG mice; 4T1 in BALB/c mice); conditions: one partner purified
T1 construct: tenascin-C, mouse, endogenous in 4T1 lung metastases; source: endogenous, 4T1 lung metastases in BALB/c mice, tissue sections
T1 sequence (Q80YX1 23-2110): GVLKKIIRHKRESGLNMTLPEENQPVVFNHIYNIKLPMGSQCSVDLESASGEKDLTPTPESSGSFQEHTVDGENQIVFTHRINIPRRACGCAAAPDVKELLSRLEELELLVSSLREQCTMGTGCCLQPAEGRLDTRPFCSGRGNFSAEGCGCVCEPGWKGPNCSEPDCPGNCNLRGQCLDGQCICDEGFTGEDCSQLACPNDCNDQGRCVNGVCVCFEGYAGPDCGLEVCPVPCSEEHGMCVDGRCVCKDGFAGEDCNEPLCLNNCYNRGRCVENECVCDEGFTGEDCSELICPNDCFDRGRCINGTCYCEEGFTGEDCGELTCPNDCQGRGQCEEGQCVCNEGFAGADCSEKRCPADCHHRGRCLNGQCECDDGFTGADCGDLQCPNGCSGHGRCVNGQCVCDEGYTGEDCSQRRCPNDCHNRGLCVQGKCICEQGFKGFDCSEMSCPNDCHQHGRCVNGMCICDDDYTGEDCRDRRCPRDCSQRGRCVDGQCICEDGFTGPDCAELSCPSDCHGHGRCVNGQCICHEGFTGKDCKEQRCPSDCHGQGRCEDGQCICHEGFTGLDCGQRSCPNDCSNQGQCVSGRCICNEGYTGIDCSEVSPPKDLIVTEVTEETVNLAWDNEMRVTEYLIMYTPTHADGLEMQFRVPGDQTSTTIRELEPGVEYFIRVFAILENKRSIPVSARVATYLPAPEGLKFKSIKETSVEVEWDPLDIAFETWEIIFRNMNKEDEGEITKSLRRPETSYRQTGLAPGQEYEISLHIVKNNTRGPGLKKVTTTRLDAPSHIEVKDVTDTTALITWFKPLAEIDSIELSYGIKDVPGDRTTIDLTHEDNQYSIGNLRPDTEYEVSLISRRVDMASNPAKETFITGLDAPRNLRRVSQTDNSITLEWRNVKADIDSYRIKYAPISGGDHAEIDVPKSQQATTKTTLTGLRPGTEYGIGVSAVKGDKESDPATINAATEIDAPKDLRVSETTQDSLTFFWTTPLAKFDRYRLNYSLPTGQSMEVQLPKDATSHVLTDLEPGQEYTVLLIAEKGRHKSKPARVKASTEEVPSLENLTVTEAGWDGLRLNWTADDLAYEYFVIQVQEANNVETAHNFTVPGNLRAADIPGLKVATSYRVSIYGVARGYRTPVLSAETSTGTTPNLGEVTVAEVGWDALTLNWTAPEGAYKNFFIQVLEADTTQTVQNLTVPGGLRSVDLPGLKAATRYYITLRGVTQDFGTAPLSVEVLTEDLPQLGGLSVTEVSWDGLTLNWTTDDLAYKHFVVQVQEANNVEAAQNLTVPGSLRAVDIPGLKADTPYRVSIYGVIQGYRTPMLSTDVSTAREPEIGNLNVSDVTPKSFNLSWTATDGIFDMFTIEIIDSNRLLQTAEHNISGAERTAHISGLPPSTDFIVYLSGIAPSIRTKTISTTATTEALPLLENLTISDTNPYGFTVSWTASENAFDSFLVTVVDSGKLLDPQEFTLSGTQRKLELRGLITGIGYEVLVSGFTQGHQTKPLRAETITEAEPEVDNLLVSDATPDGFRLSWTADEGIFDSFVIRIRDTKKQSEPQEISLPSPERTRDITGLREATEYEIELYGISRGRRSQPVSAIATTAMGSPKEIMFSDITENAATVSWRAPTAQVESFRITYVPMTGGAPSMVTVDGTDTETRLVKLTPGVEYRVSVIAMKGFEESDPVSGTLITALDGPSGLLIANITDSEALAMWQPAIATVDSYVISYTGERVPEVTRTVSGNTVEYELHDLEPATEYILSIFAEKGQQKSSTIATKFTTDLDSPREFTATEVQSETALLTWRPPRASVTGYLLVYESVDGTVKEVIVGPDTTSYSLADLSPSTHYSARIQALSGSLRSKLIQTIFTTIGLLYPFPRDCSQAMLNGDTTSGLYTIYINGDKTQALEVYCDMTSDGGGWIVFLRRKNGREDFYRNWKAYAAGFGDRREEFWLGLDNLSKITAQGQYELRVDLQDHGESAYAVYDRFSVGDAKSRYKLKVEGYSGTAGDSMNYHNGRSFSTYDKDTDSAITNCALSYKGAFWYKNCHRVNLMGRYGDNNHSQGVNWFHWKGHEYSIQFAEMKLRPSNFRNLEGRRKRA

[2] = molecular target: T2, full-length human TNC protein (Homo sapiens, UniProt P24821); test: far-Western, overlay or dot blot; immunoblot of human TNC protein probed with the nanobodies; conditions: both partners purified
T2 construct: tenascin-C, human, full-length recombinant protein (Sigma); also called human tenascin-C; hTNC; source: bought: Sigma-Aldrich (purified, recombinant)
T2 sequence (P24821 23-2201): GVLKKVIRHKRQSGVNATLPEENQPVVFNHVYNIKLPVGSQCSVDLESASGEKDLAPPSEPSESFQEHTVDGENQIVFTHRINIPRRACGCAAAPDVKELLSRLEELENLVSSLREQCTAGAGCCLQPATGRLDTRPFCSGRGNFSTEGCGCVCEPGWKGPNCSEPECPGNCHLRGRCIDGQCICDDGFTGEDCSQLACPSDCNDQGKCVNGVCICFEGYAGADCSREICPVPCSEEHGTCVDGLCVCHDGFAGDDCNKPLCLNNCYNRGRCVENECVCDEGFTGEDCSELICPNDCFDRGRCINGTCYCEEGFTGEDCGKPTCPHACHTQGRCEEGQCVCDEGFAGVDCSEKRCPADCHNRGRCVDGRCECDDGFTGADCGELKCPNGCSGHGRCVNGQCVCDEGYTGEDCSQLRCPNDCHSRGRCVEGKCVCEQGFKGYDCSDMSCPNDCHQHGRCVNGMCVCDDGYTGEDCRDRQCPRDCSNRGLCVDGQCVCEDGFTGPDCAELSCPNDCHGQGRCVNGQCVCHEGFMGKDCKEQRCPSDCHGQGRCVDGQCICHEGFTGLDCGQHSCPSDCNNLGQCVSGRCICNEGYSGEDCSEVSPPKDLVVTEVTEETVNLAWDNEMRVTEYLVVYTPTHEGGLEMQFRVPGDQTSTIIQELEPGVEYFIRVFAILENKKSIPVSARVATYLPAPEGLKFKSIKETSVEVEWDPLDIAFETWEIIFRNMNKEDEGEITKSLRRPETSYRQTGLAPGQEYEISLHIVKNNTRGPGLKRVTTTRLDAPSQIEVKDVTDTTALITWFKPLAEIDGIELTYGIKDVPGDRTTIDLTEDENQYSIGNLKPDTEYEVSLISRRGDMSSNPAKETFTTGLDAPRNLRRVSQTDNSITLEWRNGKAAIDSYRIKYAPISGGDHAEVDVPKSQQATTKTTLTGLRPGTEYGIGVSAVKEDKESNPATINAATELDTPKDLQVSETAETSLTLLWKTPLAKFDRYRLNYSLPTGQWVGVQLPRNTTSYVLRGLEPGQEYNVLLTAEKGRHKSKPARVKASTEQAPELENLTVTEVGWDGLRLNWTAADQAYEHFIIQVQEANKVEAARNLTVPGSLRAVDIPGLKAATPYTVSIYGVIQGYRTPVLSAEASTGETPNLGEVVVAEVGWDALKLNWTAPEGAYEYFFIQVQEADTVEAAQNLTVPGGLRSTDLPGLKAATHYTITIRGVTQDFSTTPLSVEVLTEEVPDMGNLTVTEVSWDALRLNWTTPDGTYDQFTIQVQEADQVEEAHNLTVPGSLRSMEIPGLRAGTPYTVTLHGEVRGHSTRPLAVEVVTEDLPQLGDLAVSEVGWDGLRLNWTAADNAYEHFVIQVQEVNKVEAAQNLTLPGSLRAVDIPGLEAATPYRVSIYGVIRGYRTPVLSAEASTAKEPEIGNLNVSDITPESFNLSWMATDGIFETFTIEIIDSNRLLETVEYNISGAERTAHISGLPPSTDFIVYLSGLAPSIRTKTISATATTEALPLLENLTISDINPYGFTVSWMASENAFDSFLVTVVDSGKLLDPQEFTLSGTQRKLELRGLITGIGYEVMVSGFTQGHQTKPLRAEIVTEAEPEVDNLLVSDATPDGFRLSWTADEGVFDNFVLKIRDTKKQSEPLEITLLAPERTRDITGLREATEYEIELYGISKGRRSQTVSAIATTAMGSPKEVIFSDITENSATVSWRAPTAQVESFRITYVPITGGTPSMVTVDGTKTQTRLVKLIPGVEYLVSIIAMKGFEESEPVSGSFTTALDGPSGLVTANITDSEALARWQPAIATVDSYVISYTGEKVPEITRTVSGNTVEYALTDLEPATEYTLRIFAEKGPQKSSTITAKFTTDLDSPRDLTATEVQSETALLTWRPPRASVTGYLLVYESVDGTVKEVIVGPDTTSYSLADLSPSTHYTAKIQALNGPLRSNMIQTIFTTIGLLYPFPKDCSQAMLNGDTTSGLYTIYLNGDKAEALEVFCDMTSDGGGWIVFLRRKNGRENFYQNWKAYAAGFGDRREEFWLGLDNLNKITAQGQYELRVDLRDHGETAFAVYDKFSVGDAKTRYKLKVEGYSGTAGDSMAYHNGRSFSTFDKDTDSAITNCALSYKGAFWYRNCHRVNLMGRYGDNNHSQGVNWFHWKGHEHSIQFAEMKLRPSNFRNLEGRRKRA

[3] = molecular target: T3, human TNC in the ECM of tumors and lung metastases derived from human TNBC cell line LM2 (Homo sapiens (LM2 cells), UniProt P24821); test: two-photon microscopy of resected organs after intravenous injection of labelled nanobody; Alexa-647 labelled nanobodies injected via the tail vein into NSG mice with LM2-TGL-ZsGreen tumors; organs resected 2 hours after injection and imaged; conditions: one partner purified
T3 construct: tenascin-C, human, made by LM2 human TNBC cells in xenografts; also called hTNC; TNC fibrils; source: endogenous, ECM of LM2 (LM2-TGL-ZsGreen) tumors and lung metastases in NSG mice
T3 sequence (P24821 23-2201): as above

Binder | binding result [1] | binding result [2] | binding result [3]
NJT3 (VHH, The label differs between experiments (biotin, Alexa-647); also called anti-TNC nanobody NJT3; 64Cu-NJT3; source: selected from alpaca phage-display library B; expressed and purified by methods previously described; not shown: sortase tag, C-terminal, kept) VHH: QVQLVETGGGLAQAGGSLRLSCAASGRTLSGYAMGWFRQAPGKEREFVAAISWSGRNTYYDYTVQGRFTISKDNAKNTVNLQMNSLKPEDTAVYYCAVSRSLDEFGDGYEMDYWGDGTQVTVSS | no binding | binds | binds
NJT4 (VHH, The label differs between experiments (biotin, Alexa-647); also called anti-TNC nanobody NJT4; 64Cu-NJT4; source: selected from alpaca phage-display library B; expressed and purified by methods previously described; not shown: sortase tag, C-terminal, kept) VHH: QVQLVESGGGLVQPGGSLRLSCAASGFTFSSYTMRWYRQAPGKERELVAFIGVAGGSTKYADSVKGRFTISRDNTKNTVYLQMNTLKPEDTAVYYCYAPLTPYWGQGTQVTVSS | no binding | binds | binds
NJT6 (VHH, The label differs between experiments (biotin, Alexa-647); also called anti-TNC nanobody NJT6; 64Cu-NJT6; source: selected from alpaca phage-display library B; expressed and purified by methods previously described; not shown: sortase tag, C-terminal, kept) VHH: QVQLVETGGDLVQPGGSLRLSCAASGLTLDYYAIGWVRQAPGKEREGVSCITPQDGNTYYDDSVMGRFTILRDNAKNMVYLQMNNLKPEDTAVYFCAAAGALTLDPSEYEYWGQGTQVTVSS | no binding | binds | binds
